# Data: patent publication US20060198894A1, “Stabilized, solid-state polypeptide particles” (priority 2002, published 2006)
# Where no end group is shown, it is not given here.
# Legend:
# Type in all cases: physicochemical
# [1] = Stability of solid-state PACAP particles stored at 60° C. for two months, RP-HPLC (recovery / total degradation)
# Protocol: (§1) The effect of pH on the stability of PACAP molecules over time was evaluated. In order to make such an evaluation, PACAP raw material was first dissolved in H2O in three different solutions, with the first solution having a pH of 2, the second solution having a pH of 4, and the third solution having a pH of 6. The pH of each solution was adjusted to the desired value using diluted HCl. Each of the three solutions was placed in lyophilization vials, and solid-state PACAP particles were produced from each of the three solutions through the lyophilization process already described herein. Particles from each of the three solutions were then stored for two months at 60° C., and the stability of the PACAP included in the solid-state particles was thereafter evaluated using RP-HPLC and SEC.
# (§2) Solid-state PACAP particles were prepared from each of the eight solutions through lyophilization, as has already been described, and solid-state PACAP particles produced from each of the eight solutions were then stored at 60° C. for two months. After exposing the various solid-state PACAP particles to a temperature of 60° C. over two months, the stability of the PACAP included in various particles was evaluated using RP HPLC and SEC processes.
# PACAP particles containing histidine buffer (Sigma) and PACAP particles containing histidine buffer in combination with calcium chloride (CaCl2, J T Baker), sucrose and sodium dodecyl sulfate (SDS, Pierce) were prepared and the stabilization of PACAP provided by such particles was evaluated. To prepare the PACAP particles evaluated, six different aqueous solutions were prepared. Each solution included a desired amount of PACAP dissolved therein, and the pH of each of the six solutions prepared was adjusted to 6 by the addition of diluted HCl. The first aqueous solution was prepared without additives (histidine buffer, CaCl2, sucrose, or SDS). The second aqueous solution was prepared with a 10 mM concentration of histidine buffer. The third aqueous solution was formulated with a 10 mM concentration of histidine buffer as well as a 10 mM concentration of CaCl2. The fourth aqueous solution was formulated with a 10 mM concentration of histidine buffer and included sucrose at a 0.5/1 weight ratio (sucrose/PACAP) relative to PACAP. […] The PACAP particles produced from each solution were then stored at 60° C. for two months, and the stability of the PACAP contained within the various different particles was evaluated using RP-HPLC and SEC processes after such storage. […]
# To evaluate the stabilizing effect of CaCl2 in PACAP particles prepared at acidic and near neutral pH, four different types of particles were formulated, stored at 60° C. for two months, and then analyzed for PACAP degradation. […]
# [2] = Aggregation / dimer formation in solid-state PACAP particles stored at 60° C. for two months, SEC; settings: for dimer formation: two months of storage at 60° C.
# Protocol: as §1, §2
# PACAP particles containing histidine buffer (Sigma) and PACAP particles containing histidine buffer in combination with calcium chloride (CaCl2, J T Baker), sucrose and sodium dodecyl sulfate (SDS, Pierce) were prepared and the stabilization of PACAP provided by such particles was evaluated. To prepare the PACAP particles evaluated, six different aqueous solutions were prepared. Each solution included a desired amount of PACAP dissolved therein, and the pH of each of the six solutions prepared was adjusted to 6 by the addition of diluted HCl. The first aqueous solution was prepared without additives (histidine buffer, CaCl2, sucrose, or SDS). The second aqueous solution was prepared with a 10 mM concentration of histidine buffer. The third aqueous solution was formulated with a 10 mM concentration of histidine buffer as well as a 10 mM concentration of CaCl2. The fourth aqueous solution was formulated with a 10 mM concentration of histidine buffer and included sucrose at a 0.5/1 weight ratio (sucrose/PACAP) relative to PACAP. The fifth aqueous solution was prepared with a 10 mM concentration of histidine buffer, a 10 mM concentration of CaCl2, and an amount of sucrose providing a 0.5/1 weight ratio (sucrose/PACAP) relative to PACAP. The sixth aqueous solution was formulated with a 10 mM concentration of histidine buffer and 0.02 wt % SDS. Solid-state PACAP particles were then produced from each of the six solutions using the lyophilization process already described herein. The PACAP particles produced from each solution were then stored at 60° C. for two months, and the stability of the PACAP contained within the various different particles was evaluated using RP-HPLC and SEC processes after such storage. […] In addition, sucrose, CaCl2 and SDS further stabilized the peptide, providing roughly 14 fold to 20 fold decreases in aggregate formation.
# To evaluate the stabilizing effect of CaCl2 in PACAP particles prepared at acidic and near neutral pH, four different types of particles were formulated, stored at 60° C. for two months, and then analyzed for PACAP degradation. The four different particle formulations were prepared from four different aqueous solutions. Each of the four solutions included a desired amount of PACAP dissolved therein and the pH of each solution was adjusted to the desired level using diluted HCl. The first aqueous solution was formulated without additives (histidine or CaCl2), and the pH of the first solution was adjusted to 2. The second aqueous solution was formulated with a 10 mM concentration of CaCl2, and the pH of the second solution was adjusted to 2. […]
# [3] = Stability of PACAP suspended in suspension vehicles at elevated temperature, RP-HPLC and SEC
# Source text: Due to the nature of the suspension vehicles used in implantable drug delivery systems, mixing of the suspension formulation bulk and subsequent loading of the suspension formulation into the implantable systems are often conducted at elevated temperatures. To evaluate the stability of PACAP analog (or simply “PACAP”) suspended in various suspension vehicles at elevated temperatures, unprotected, lyophilized PACAP was suspended in four different suspension vehicles (LL/GML/PVP, BA/PVP, EHL/PVP, and PEG/PVP). To suspend the PACAP into the suspension vehicles 3.3 mg PACAP acetate was manually mixed into each of the different suspensions to achieve a PACAP content of approximately 3%. The stability of the PACAP suspension formulations was then evaluated after incubation at 65° C. for four hours.
# The PACAP suspensions were then further incubated at 37° C. and 65° C. an additional 17 days. […] (Table 3). […] In addition, other chemical degradation contributed to the loss of lyophilized PACAP.
# [4] = Total degradation of lyophilized PACAP with excipients stored at 2-8, 40 and 60° C. up to 3 months, RP-HPLC
# Protocol: (§3) The preliminary findings from the processing study led to the evaluation of the stabilization effect of sugar (sucrose) and nonionic surfactant (Tween 80) on PACAP lyophiles and suspensions. In order to carry out the evaluation, samples were prepared with PACAP in 10 mM NH4OAc (pH6.4) at 3 levels of Tween 80 (0, 0.05, 0.2 wt %) and sucrose (0, 0.5/1, 1/1, w/w). A solution of PACAP in 10 mM of histidine (pH 6.4) and sodium succinate (pH 5.6) was also prepared. Each of the PACAP solutions were lyophilized to obtain reconstituted, solid-state PACAP particles, and individual vials were provided 3.3 mg samples of the material reconstituted from each of the solutions, with the samples containing (1) no additive, (2) 0.2 wt % Tween 80, (3) 0.2 wt % Tween 80+0.5:1, w/w sucrose, and (4) 1:1, w/w sucrose. The various 3.3 mg samples were manually mixed with LL/GML/PVP and BA/PVP to provide suspension formulations having about 3% PACAP content, and the suspension formulations were subjected to 4 hours of incubation at 65° C. After the initial incubation period, the various suspension formulations were stored as described below and evaluated by RP-HPLC and SEC.
# (§4) Solid-state PACAP particles were prepared via a lyophilization process (FTS Duro stop) from three different polypeptide solutions prepared in NH4OAc buffer at pH6. Each of the three different solutions contained a different amount of sucrose, with the first containing no sucrose, the second containing a weight ratio of sucrose to PACAP of 0.5/1, and the third containing a weight ratio of sucrose to PACAP 1/1. Solid-state PACAP particles prepared from each of the three solutions were stored at control temperatures ranging from 2° C. to 8° C., a temperature approximating physiologic temperature (40° C.), and a temperature exceeding physiologic temperature (60° C.). The stability of the PACAP contained within each group of solid-state PACAP particles was assessed at 24 days and 3 months. To assess PACAP stability within each group of particles, the particles were reconstituted in water and analyzed by reversed-phase RP-HPLC (acetonitrile gradient elution with mobile phase containing 0.1% trifluoroacetic acid, and a UV detection at 214 nm) and size exclusion HPLC (SEC, isocratic elution, 30% acetonitrile mixed with 70% of aqueous solution containing 0.1% trifluoroacetic acid and 200 mM of sodium chloride, and a UV detection at 220 nm).
# [5] = Aggregation of lyophilized PACAP and PACAP suspensions with excipients stored at 2-8, 40 and 60° C. up to 3 months, SEC
# Protocol: as §3, §4
# [6] = Example 2 lyophilized formulations, except samples containing 1:1 w/w sucrose
# [7] = lyophilized PACAP, ammonium acetate app. pH 6.4, 40° C. for 3 months (FIG. 1)
substance,measurement,setting,value
PACAP analog: synthetic PACAP-R3 agonist analog manufactured by Bayer; 31 amino acid sequence HSDAVFTDNYTRLRKQVAAKKYLQSIKNKRY (SEQ. I.D. NO. 1) (HSDAVFTDNYTRLRKQVAAKKYLQSIKNKRY; ends and bridges not checked),effect of acidic pH on stability,"[1]; particles lyophilized at pH 2, 4, 6 (HCl), two months at 60° C. (FIG. 9)",greatly improved stability
same,effect of trehalose and methyl MP on stability,"[1]; particles prepared at pH2, relative to pH2 without stabilizing sugar, 60° C. for two months",additive stability
same,effect of sucrose on stability,"[1]; particles prepared at pH2 with sucrose, 60° C. for two months",significant destabilizing effect
same,effect of CaCl2 on stability,"[1]; particles with 10 mM CaCl2 at both pH 2 and 6, 60° C. for two months",further improved the stability
same,dimer formation,[2]; particles at acidic pH with Ca2+/PACAP analog 4/1 molar ratio,0.8%
same,dimer formation,[2]; particles at acidic pH with trehalose/PACAP analog 0.55/1 w/w,0.7%
same,decrease in aggregate formation,"[2]; particles from pH 6 solution with 10 mM histidine buffer vs no additives, 60° C. for two months",roughly 6 fold
same,dimer formation,"[2]; particles lyophilized from stabilizing solution of apparent pH 2 (diluted HCl), no excipient",1.1%
same,improvement in preventing aggregate formation,"[2]; particles prepared at pH 6 with sucrose (7.3 molar equivalent), 60° C. for two months",~6 fold
same,improvement in preventing aggregate formation,"[2]; particles prepared at pH 6 with trehalose (7.3 molar equivalent), 60° C. for two months",~4 fold
same,stability of PACAP suspensions,[3]; further incubated at 37° C. an additional 17 days,marginal stability loss
same,stability of PACAP suspensions,[3]; further incubated at 65° C. an additional 17 days,relatively more aggressive degradation
same,stability of PACAP suspension formulations,"[3]; unprotected lyophilized PACAP, about 3%, in LL/GML/PVP, BA/PVP, EHL/PVP, PEG/PVP, 65° C. for four hours",stable
same,rate of total degradation at 60° C. relative to 40° C.,[4]; [6],about 5 times
same,rate of total degradation (RP HPLC) at 60° C. relative to 40° C.,"[4]; Example 3, NH4OAc buffer pH6, except particles with PACAP to sucrose weight ratio of 1/1",about 5 times
same,total rate of degradation at 60° C. relative to 40° C.,[4]; PACAP analog contained within particles,approximately five times higher
same,time stable,"[4]; lyophilized PACAP without a stabilizer, at 4° C.",at least 3 months
same,estimated total degradation,"[4]; lyophilized PACAP, apparent pH 6.4 in ammonium acetate, equal amount of sucrose (w/w), in 6 months at 40° C.",8.4%
same,rate of aggregation at 60° C. relative to 40° C.,[5]; [6],approximately 10 times
same,rate of aggregation (SEC) at 60° C. relative to 40° C.,"[5]; Example 3, NH4OAc buffer pH6, sucrose 0, 0.5/1, 1/1, all formulations tested",10 times
same,effect of sucrose on aggregate formation in suspensions,"[5]; PACAP suspensions in BA/PVP and LL/GML/PVP, 40° C.",suppressed aggregate formation
same,effect of Tween 80 on aggregation,[5]; [7],no added effect
same,effect of sucrose on aggregation,[5]; [7],suppressed PACAP aggregation
same,effect of histidine and sodium succinate on aggregate formation,"[5]; lyophilized formulations, 40° and 60° C. over 3 months",better stabilizers than ammonium acetate
same,rate of aggregation or dimerization at 60° C. relative to 40° C.,[5]; solid-state PACAP particles,ten times higher
